Results as given in patent publication US20090291088A1 (Biogen, published 2009).

Tests used:
[1] = target: T1, human INSR(28-956)-His10 (human, UniProt P06213 28-956); assay: ELISA on coated rh-INSR
T1 construct: range 28-956; Bought (R&D Systems 1544-IR); also called rh-INSR; soluble insulin receptor
Protocol: (§1) ELISA assays were performed to determine specific binding of the Fab fragment antibodies to soluble IGF-1R over the insulin receptor. […] Color development was stopped by addition of 4NH₂SO₄ and optical density is measured at 450 nm using a Molecular Devices plate reader and binding curves are generated.

[2] = target: T2, human IGF-1R expressed on cells (human, UniProt P08069 31-1367); assay: flow cytometry, MCF-7 cells
T2 construct: On MCF-7 tumor cells or on 3T3/CHO transfectants; precursor is processed into alpha and beta subunits; Signal peptide 1-30 left out as stated; also called wild type IGF-1R; IGF-1R 3T3
Protocol: The ability of Fabs to bind to the wild type IGF-1R was determined by flowcytometry using MCF-7 tumor cell line.
MCF-7 cells (Human Breast Adenocarcinoma from NCI) were split 24 hours prior to the setup of the assay to obtain 70% confluent monolayer. Routinely, MCF-7 cell line was maintained within 20 passages. Cells were lifted with cell dissociation buffer (Gibco catalog #13151-014), counted, washed and adjusted to 1×10⁶ cells/ml and one ml of cells were then added to each tube (12×75 mm tube Falcon catalog# 352054). Cells were pelleted and supernatant removed by centrifugation at 1200 rpm for 5 min and 100 μl of diluted antibodies were then added to the cell pellet. Purified Fabs were tested at a starting concentration of either 210 or 60 μg/ml with 1:3 dilutions in FACS buffer, down to 0.001 μg/ml. FACS buffer used throughout the assay was PBS (without Ca++/Mg++) containing 1% BSA (Sigma catalog# A-7906; Sigma-Aldrich Corp. (St. Louis, Mo., USA)) and 0.1% Sodium Azide (Sigma catalog #S2002). […] Samples were allowed to incubate on ice for 1 hour and 15 minutes then were washed with 2 ml FACS buffer and centrifuged at 1200 rpm for 5 minutes at 4° C. The supernatant was aspirated and 100 μl of the secondary detection antibody was added to each corresponding tube in FACS buffer. Samples were then incubated for 30 minutes on ice, in the dark. Cells were washed as described above, then, re-suspended in […] FACS buffer per tube/sample.
Cells were stained for live cell determination with Propidium Iodide staining solution (PI for dead cell exclusion; BD Pharmingen catalog# 51-66211E or 556463; use at 1:500 final in FACS buffer). Samples were run on the FACSCalibur instrument (Becton Dickinson) with 10,000 live events collected per sample.

[3] = target: T1, human INSR(28-956)-His10; assay: ELISA, plate coated with rh-INSR
Protocol: as §1

[4] = target: T3, human IGF-1R(1-902)-His10 (human, UniProt P08069 31-932); assay: ELISA, plate coated with rh-IGF-1R, bound Fab detected with anti-human kappa-HRP
T3 construct: Cy5-labelled in tr-FRET; also called hIGF-1R-His10; IGF-1R-His
Protocol: as §1

[5] = target: T2, human IGF-1R expressed on cells; assay: cell-based or functional assay
[6] = target: T4, murine IGF-1R expressed on cells (mouse, UniProt Q60751 31-1373); assay: binding to CHO transfectants
T4 construct: whole, on cells; also called mouse IGF-1R

[7] = target: T3, human IGF-1R(1-902)-His10; assay: SPR, antibody over captured IGF-1R-10His
Protocol: All surface plasmon resonance (SPR) experiments were performed on a Biacore 3000 set to 25° C. using HBS-EP (Biacore, Cat. No. BR-1001-88) as the running buffer. A biotin-labeled anti-HisTag antibody (biotin-PENTA-His, Qiagen Cat. No. 34440) was immobilized to saturation on a Biacore SA chip (Cat. No. BR-1000-32) surface by injection at 500 nM in HBS-EP buffer. […] Subsequent to IGF-1R injections, flow rates were increased to 20 μL/min. A second, 130 μL injection of anti-IGF-1R antibody or Fab was performed to investigate interactions with the receptor. Each antibody and Fab was serially diluted from 64 nM to 0.5 nM to obtain concentration dependent kinetic binding curves. Each injection series was regenerated using 3×10 μL injections of 10 mM Acetate, pH 4.0, at 20 μL/min. Each curve was double referenced using (1) data obtained from a streptavidin surface devoid of IGF-1R and (2) data from a primary injection of IGF-1R followed by a secondary injection of HBS-EP buffer. The concentration series for each antibody and Fab was fit to the 1:1 binding model provided within the BiaEvaluation software of the manufacturer.
The rates at which the antibodies accumulate on the IGF-1R coated surface when applied at various concentrations as well as the rates at which they dissociated during applications of pure buffer were investigated by fitting the data to a 1:1 binding model. Approximate kinetic rate constants and equilibrium dissociation constant were calculated (Table 14).

[8] = target: T5, human IGF-1R(1-903)-Fc (human, UniProt P08069 31-933); assay: ELISA on hIGF-1R-Fc, competitor biotinylated M13-C06
T5 construct: Made by Biogen Idec; Multimerises through IGF-1R and Fc; also called hIGF-1R-Fc; IGF-1R-Fc; not shown: C-terminal human IgG1-Fc tag

[9] = target: T6, Rhesus IGF-1R expressed on CHO cells (rhesus monkey, UniProt I2CWY3 31-1367); assay: flow cytometry and confocal microscopy, CHO transfectants
T6 construct: whole, on cells; also called Rhesus IGF-1R/CHO

[10] = target: T5, human IGF-1R(1-903)-Fc; assay: ELISA, plate coated with soluble IGF-1 receptor Fc fusion protein, detection with anti-human kappa-HRP
Protocol: The plate was washed with phosphate-buffered saline (PBS, Irvine Scientific, Cat#9240), pH 7.4 plus 0.025% Tween 20 in the Skan Washer 300 (Skatron Instruments), blocked with buffer containing 1% nonfat milk, 0.05% Tween 20 in PBS, pH 7.4, and then incubated at room temperature for 1 hour. After incubation plate was washed with PBS plus 0.025% Tween 20 in the Skan Washer 300. […] Following a one hour incubation at room temperature, plate was washed with PBS plus 0.025% Tween 20 in the Skan Washer 300. […] Plate incubated for 1 hour at room temperature was washed with PBS plus 0.025% Tween 20 in the Skan Washer 300. […] The absorbance was measured at 450 nm, background 540 nm for TMB using the Molecular Devices plate reader. Data was analyzed using the SOFTMAX PRO software package version 4.3 LS (Molecular Devices Corp.).

[11] = target: T5, human IGF-1R(1-903)-Fc; assay: competition ELISA: biotinylated hIGF-1R-Fc on streptavidin plate, 320 nM human IGF-1 His, detection with anti-His-HRP; blocked ligand human IGF-1 His
Protocol: hIGF-1R-Fc was biotinylated using EZ-Link Sulfo-NHS-LC-Biotin according to the protocol provided by the manufacturer (Pierce Cat. No. 21335). Biotinylated human IGF-1R-Fc at 5 μg/ml was added to the wells of SigmaScreen streptavidin-coated 96-well plates (Sigma, Cat. No. M5432-5EA; Sigma-Aldrich Corp. (St. Louis, Mo., USA)) at 100 μL/well and incubated overnight at 2-8° C. The plates were then washed four times with 200 μL/well PBST. […] The dilutions were added to the plates in duplicate at 100 μL/well and the plates were incubated at RT for 1 hour. The plates were then washed four times with 200 μL/well PBST. An HRP-conjugated anti-Histag antibody (Penta-His HRP Conjugate, QIAGEN, Cat. No. 1014992) was diluted 1:1000 in PBST and added to plates at 100 μL/well, and the plates were incubated at RT for one hour. The plates were then washed four times with 200 μL/well PBST. SureBlue Reserve TMB Microwell Peroxidase Substrate (KPL, Cat. No. 53-00-01) was added to plates at 100 μL/well followed by 1% phosphoric acid at 100 μL/well once the desired reaction was observed. The absorbance of each well was determined at 450 nm, and the results were normalized and plotted against the log of antibody concentration.

[12] = target: T5, human IGF-1R(1-903)-Fc; assay: competition ELISA: biotinylated hIGF-1R-Fc on streptavidin plate, 320 nM human IGF-2 His, detection with anti-His-HRP; blocked ligand human IGF-2 His

T6 sequence (I2CWY3 entry or part of it): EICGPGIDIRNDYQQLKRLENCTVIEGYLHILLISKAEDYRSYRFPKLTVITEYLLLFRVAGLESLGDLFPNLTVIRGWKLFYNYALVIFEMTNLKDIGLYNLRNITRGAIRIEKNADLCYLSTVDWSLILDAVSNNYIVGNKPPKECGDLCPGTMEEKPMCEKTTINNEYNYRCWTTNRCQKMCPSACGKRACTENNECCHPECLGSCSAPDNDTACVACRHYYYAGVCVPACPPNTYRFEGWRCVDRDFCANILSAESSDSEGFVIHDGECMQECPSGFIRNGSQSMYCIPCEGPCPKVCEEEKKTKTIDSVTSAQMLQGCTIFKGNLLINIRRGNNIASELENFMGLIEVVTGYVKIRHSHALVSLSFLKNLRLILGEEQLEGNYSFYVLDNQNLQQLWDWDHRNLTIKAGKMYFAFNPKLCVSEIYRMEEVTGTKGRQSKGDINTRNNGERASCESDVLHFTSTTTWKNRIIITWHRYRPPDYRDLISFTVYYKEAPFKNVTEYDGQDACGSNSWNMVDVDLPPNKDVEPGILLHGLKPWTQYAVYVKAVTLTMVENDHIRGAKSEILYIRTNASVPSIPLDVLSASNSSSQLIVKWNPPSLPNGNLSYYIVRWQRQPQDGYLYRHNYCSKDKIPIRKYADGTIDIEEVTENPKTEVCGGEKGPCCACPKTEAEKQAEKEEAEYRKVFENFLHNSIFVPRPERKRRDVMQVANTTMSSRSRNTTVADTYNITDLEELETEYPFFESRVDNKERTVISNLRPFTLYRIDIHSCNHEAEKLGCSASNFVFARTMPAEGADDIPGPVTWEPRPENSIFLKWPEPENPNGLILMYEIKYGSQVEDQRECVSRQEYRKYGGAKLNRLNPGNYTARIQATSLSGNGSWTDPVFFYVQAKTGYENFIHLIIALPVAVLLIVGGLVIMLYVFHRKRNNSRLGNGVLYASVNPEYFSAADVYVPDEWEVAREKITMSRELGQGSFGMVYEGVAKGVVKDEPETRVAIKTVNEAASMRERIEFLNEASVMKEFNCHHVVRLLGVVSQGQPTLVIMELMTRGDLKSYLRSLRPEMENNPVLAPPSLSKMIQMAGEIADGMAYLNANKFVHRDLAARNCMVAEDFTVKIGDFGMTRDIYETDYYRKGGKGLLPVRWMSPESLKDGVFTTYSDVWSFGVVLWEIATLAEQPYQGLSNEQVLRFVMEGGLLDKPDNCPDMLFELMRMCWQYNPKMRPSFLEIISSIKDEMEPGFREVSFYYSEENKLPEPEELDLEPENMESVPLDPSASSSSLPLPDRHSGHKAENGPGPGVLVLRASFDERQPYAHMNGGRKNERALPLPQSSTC
T4 sequence (Q60751 31-1373): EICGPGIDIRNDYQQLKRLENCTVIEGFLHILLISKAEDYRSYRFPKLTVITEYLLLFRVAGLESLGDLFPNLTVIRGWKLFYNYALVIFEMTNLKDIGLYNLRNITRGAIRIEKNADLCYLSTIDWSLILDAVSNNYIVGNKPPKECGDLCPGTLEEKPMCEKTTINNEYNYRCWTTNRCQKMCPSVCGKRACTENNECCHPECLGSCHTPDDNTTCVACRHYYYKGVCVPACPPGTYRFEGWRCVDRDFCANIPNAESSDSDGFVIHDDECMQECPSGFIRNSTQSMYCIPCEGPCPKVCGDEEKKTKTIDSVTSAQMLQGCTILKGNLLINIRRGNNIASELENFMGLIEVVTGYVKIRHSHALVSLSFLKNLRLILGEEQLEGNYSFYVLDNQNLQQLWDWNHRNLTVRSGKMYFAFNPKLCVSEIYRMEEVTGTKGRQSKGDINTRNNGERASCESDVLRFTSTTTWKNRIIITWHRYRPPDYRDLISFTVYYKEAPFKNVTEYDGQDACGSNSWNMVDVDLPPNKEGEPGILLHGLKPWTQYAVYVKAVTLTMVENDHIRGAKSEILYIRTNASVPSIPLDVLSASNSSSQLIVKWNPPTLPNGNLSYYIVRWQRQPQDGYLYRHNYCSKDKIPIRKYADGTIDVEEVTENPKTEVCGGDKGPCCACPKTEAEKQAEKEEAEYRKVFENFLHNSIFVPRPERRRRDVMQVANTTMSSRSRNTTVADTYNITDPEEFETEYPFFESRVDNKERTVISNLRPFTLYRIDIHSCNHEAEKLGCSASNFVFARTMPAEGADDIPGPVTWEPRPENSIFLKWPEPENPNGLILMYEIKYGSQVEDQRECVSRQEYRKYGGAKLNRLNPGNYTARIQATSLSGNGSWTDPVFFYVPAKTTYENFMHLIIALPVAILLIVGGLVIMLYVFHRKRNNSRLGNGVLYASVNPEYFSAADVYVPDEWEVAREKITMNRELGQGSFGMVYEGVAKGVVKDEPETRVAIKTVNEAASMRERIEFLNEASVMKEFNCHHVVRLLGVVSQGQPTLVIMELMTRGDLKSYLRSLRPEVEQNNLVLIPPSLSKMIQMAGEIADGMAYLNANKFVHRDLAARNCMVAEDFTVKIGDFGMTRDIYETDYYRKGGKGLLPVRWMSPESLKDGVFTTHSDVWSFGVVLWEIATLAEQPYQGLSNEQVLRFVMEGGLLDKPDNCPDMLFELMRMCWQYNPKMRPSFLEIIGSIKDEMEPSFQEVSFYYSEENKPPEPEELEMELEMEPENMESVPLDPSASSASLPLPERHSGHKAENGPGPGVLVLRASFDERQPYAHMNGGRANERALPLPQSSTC

B1: M12-E01 Fab (Fab, V domains shown)
VH: EVQLLESGGGLVQPGGSLRLSCAASGFTFSPYSMLWVRQAPGKGLEWVSSIGSSGGSTRYADSVKGRFTISRDNSKNTLYLQMNSLRAEDTAMYYCARVRGILHYDILIGRNLYYYYMDVWGKGTTVTVSS
VL: QYELTQPPSVSEAPRQRVTISCSGSSSNIGNNAINWYQQLPGKPPKLLIYYDDLLPSGVSDRFSGSKSGTSGSLAISGLQSEDEADYYCAAWDDNLNGVIFGGGTKLTVL
binding result [1]: no binding (tested: 2 µM-0.2 nM)

B2: M14-B01 Fab (Fab, V domains shown)
VH: EVQLLESGGGLVQPGGSLRLSCAASGFTFSNYHMAWVRQAPGKGLEWVSVISPTGGRTTYADSVKGRFTISRDNSKNTLYLQMNSLRAEDTATYYCARAGYSYGYGYFDYWGQGTLVTVSS
VL: DIQMTQFPATLSVSPGERATLSCRASQSVMRNLAWYQQKPGQPPRLLIYGASKRATGIPARFSGSGSGTAFTLTISNLEPEDFAVYYCHQRSTWPLGTFGPGTKLEAK
notes: Human phage Fab, kappa
EC50 [2]: 29.4 nM | binding result [3]: no binding (tested: about 20000 nM) | EC50 (read off the curve) [4]: ~6 nM

B3: M14-C03.G4.P.agly (antibody, human IgG4 S228P, kappa, V domains shown)
VH: EVQLLESGGGLVQPGGSLRLSCAASGFTFSKYMMSWVRQAPGKGLEWVSYISPSGGLTWYADSVKGRFTISRDNSKNTLYLQMNSLRAEDTAVYYCARDGARGYGMDVWGQGTTVTVSS
VL: DIQMTQSPATLSLSPGERATLSCRASQSVSSYLAWYQQKPGQAPRLLIYDASNRATGIPARFSGSGSGTDFTLTISSLEPEDFAVYYCQQRSNWPPEVTFGPGTKVDIKR
notes: Full-length human aglycosylated IgG4.P, kappa; Places that say only 'M14-C03 antibody' were assigned to this version; also called M14-C03_Ab
inhibition of IGF-1 and IGF-2 mediated IGF-1R receptor phosphorylation (EC50) [5]: < 1 nM | binding result [6]: binds | Kd [7]: 0.36 nM | koff [7]: 0.0002 s⁻¹ | kon [7]: 570000 M⁻¹ s⁻¹ | percent competition (relative to self-competition) [8]: 90 to 100% | binding result [9]: binds | EC50 (read off the curve) [10]: ~0.07 nM | IC50 (read off the curve) [11]: ~5 nM | IC50 (read off the curve) [12]: ~1 nM
